Test results from PMC5113729 (Nature structural & molecular biology, 2016).

T1: Sp Dcp2(1-243), as part of the single chain (fission yeast (Sp), UniProt O13828 1-243)
T1 sequence (looked up): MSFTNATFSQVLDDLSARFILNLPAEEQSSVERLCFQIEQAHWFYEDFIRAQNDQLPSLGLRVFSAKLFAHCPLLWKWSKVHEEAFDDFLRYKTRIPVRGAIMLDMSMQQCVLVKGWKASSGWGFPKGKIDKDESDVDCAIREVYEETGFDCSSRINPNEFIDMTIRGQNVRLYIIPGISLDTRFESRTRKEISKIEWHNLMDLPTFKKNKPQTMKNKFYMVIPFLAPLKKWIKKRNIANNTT

B1: Hs PNRC2(91-121) (domain or fragment)
chain: not shown
B2: Sp Dcp1(1-127) (natural protein, fission yeast (Sp), UniProt Q9P805 1-127, looked up)
chain: MEDENILRNAVNLQVLKFHYPEIESIIDIASHVAVYQFDVGSQKWLKTSIEGTFFLVKDQRARVGYVILNRNSPENLYLFINHPSNVHLVDRYLIHRTENQHVVGLWMFDPNDMSRIFNIVKESLLR

Columns and labels:
Sp Dcp1(1-127) = target: B2; experiment: crystal structure
[1] = target: T1, Sp Dcp2(1-243), as part of the single …; experiment: crystal structure

binding result (Sp Dcp1(1-127)) | binding result [1] | Binder
binds |  | B1
 | binds | B2
